Molecular target: extracellular matrix (BD Matrigel)
Test: ECL on Matrigel-coated plate, relative to MRAH-G1d/MRAL-k0

ECM binding ratio (standard = 1): 0.3
B1: TR01H113-E2702sKsc/GCH065-E2704sEpsc/L0011-k0 (bispecific antibody, human IgG4 S228P, kappa, N297A)
heavy 1: QVQLVESGGGVVQPGGSLRLSCAASGFTFSNAWMHWVRQAPGKGLEWVAQIKDKSQNYATYVAESVKGRFTISRADSKNSIYLQMNSLKTEDTAVYYCRYVHYAAGYGVDIWGQGTTVTVSSASTKGPSVFPLAPCSRSTSESTAALGCLVKDYFPEPVTVSWNSGALTSGVHTFPAVLQSSGLYSLSSVVTVPSSSLGTKTYTCNVDHKPSNTKVDKRVESKYGPPCPPCPAPEFRGGPKVFLFPPKPKDTLMISRTPEVTCVVVDVSQEDPEVQFNWYVDGVEVHNAKTKPREEQFASTYRVVSVLTVLHQDWLNGKEYKCKVSNKGLPSSIEKTISKAKGQPREPQVYTLPPSQKEMTKNQVSLTCLVKGFYPSDIAVEWESNGQPENNYKTTPPVLDSDGSFFLYSKLTVDKSRWQEGNVFSCSVMHEALHNHYTQKSLSLSP
heavy 2: QVQLVQSGAEVKKPGASVTVSCKASGYTFTDYEMHWIRQPPGEGLEWIGAIDGPTPDTAYSEKFKGRVTLTADKSTSTAYMELSSLTSEDTAVYYCTRFYSYTYWGQGTLVTVSSASTKGPSVFPLAPCSRSTSESTAALGCLVKDYFPEPVTVSWNSGALTSGVHTFPAVLQSSGLYSLSSVVTVPSSSLGTQTYTCNVDHKPSNTKVDKRVESKYGPPCPPCPAPEFRGGPKVFLFPPKPKDTLMISRTPEVTCVVVDVSQEDPEVQFNWYVDGVEVHNAKTKPREEQFASTYRVVSVLTVLHQDWLNGKEYKCKVSNKGLPSSIEKTISKAKGQPREPQVYTLPPSQEEMTKNQVSLTCLVKGFYPSDIAVEWESNGQPENNYKTTPPVLDSDGSFFLYSKLTVDKSRWQEGNVFSCSVMHEALHNHYTQESLSLSP
light: DIVMTQSPLSLPVTPGEPASISCRSSQPLVHSNRNTYLHWYQQKPGQAPRLLIYKVSNRFSGVPDRFSGSGSGTDFTLKISRVEAEDVGVYYCGQGTQVPYTFGQGTKLEIKRTVAAPSVFIFPPSDEQLKSGTASVVCLLNNFYPREAKVQWKVDNALQSGNSQESVTEQDSKDSTYSLSSTLTLSKADYEKHKVYACEVTHQGLSSPVTKSFNRGEC
